Residues, ends and D or L forms follow the SMILES beside them. *: point of attachment. Cbz = O=C(OCc1ccccc1)*; CH2F = FC*
Experiments:
HeLa cells [1] = assay: DNA content by propidium iodide staining and flow cytometry in transfected HeLa cells; type: cell-based; conditions: inhibitor 20 μM, 48 h
Experimental: HeLa cells were transfected with GFP-survivin(T34A) in the presence or in the absence of 20 μM of the caspase inhibitor, Z-VAD-fmk. Gated GFP-expressing cells were analyzed 48 h after transfection for DNA content by propidium iodide staining and flow cytometry. The percentages of apoptotic cells with sub-G1 (hypodiploid) […] DNA content are indicated. Apoptotic HeLa cells in GFP-vector transfectants were 8%. Data are representative of one experiment out of at least three independent determinations.
Transfection experiments. For transient transfection, HeLa cells in C-6 tissue culture plates (Costar, Cambridge, Mass.) at ˜60-70% confluency, were incubated in 1 ml of serum-free OptiMEM medium (Life Technologies, Gaithersburg, Md.) for 20 min, and transfected with 2.5 μg of the various plasmid cDNAs plus 9 μl Lipofectamine (Life Technologies). After a 5 h incubation at 37° C., the mixture was aspirated and substituted with complete growth medium for 48-72 h. To generate stable YUSAC-2 transfectants, a survivin(T34A) cDNA was inserted into the HindIII-SpeI sites of the pTet-splice vector (Dr. D. Schatz, Yale University School of Medicine), downstream of the regulatory sequences of the Tet-resistance operon (TetO). […] Gated GFP-expressing cells were analyzed for DNA content by flow cytometry on a FACSort (Becton Dickinson, San Jose, Calif.) using a Cell Quest software. […]

HeLa cells [2] = assay: Nuclear morphology of apoptosis (DAPI) in transfected HeLa cells; type: cell-based; conditions: for HeLa cell apoptosis induced by survivin(T34A), effect of co-transfected dominant negative caspase: co-transfection
Description: HeLa cells transfected with GFP-vector (vector), GFP-survivin(T34A) (T34A), or GFP-caspase-9 (Met^1-Asp^330) (caspase-9), were scored morphologically for nuclear integrity by DAPI staining after 48-h. Arrows, nuclear fragmentation and chromatin condensation in GFP-expressing cells.
The experimental procedures are the same as in A. Data are the meaνSEM of four independent experiments.
HeLa cells were transfected with the various indicated combinations of GFP-constructs, with or without etoposide (10 μg/ml) or TNFα (10 ng/ml) plus cycloheximide (10 μg/ml), harvested after 48 h, and GFP-labeled cells were morphologically scored for nuclear fragmentation by DAPI staining, as described in FIG. 2B. DN, dominant negative. Data are the mea±SEM of four independent experiments.
Transfection experiments. For transient transfection, HeLa cells in C-6 tissue culture plates (Costar, Cambridge, Mass.) at ˜60-70% confluency, were incubated in 1 ml of serum-free OptiMEM medium (Life Technologies, Gaithersburg, Md.) for 20 min, and transfected with 2.5 μg of the various plasmid cDNAs plus 9 μl Lipofectamine (Life Technologies). After a 5 h incubation at 37° C., the mixture was aspirated and substituted with complete growth medium for 48-72 h. To generate stable YUSAC-2 transfectants, a survivin(T34A) cDNA was inserted into the HindIII-SpeI sites of the pTet-splice vector (Dr. D. Schatz, Yale University School of Medicine), downstream of the regulatory sequences of the Tet-resistance operon (TetO). YUSAC-2 cells were transfected with 0.8 μg pTet-T34A, 0.8 μg of the transactivation/selection plasmid ptTA-Neo and 5 μl Lipofectamine in 1 ml of OptiMem. Forty-eight h after transfection, cells were re-plated at low density in 15×150 mm plates in growth medium containing 1.5 mg/ml Geneticin (G418, Life Technologies), 2 mM sodium hydroxide and 0.5 μg/ml Tet (Sigma, St. Louis, Mo.) (selection medium). After a 3-week culture, ninety-six individual clones were screened for differential growth in the presence or absence of Tet. […] Flow cytometry. HeLa cells transfected with the various GFP constructs in the presence or in the absence of the broad-spectrum caspase inhibitor Z-VAD-fmk (20 μM) were harvested after 48-h (non-adherent and adherent cells), washed in PBS, pH 7.0, and fixed in cold 70% ethanol for 30 min on ice. After washes in PBS, cells (10×10^6/ml) were stained with 25 μg/ml propidium iodide (Sigma), 0.05% Triton X-100 and 100 μg/ml RNAse A (Boehringer Mannheim, Indianapolis, Ind.) for 45 min at 22° C. Gated GFP-expressing cells were analyzed for DNA content by flow cytometry on a FACSort (Becton Dickinson, San Jose, Calif.) using a Cell Quest software. In other experiments, F5-C4 cells were synchronized at the G1/S boundary by culture with 5-mM thymidine for 16 h at 37° C., in the presence or in the absence of Tet. At the end of the incubation, cells were released from the thymidine block, and harvested at 3-h intervals for DNA content analysis by propidium iodide staining and flow cytometry, or, alternatively, for caspase-9 processing by Western blotting (see below). TUNEL staining. Internucleosomal DNA fragmentation of F5.C4 cells in the presence or in the absence of Tet was carried out by end-labeling with terminal deoxynucleotidyl transferase (TdT) and peroxidase-conjugated anti-digoxigenin antibody using the ApopTag kit (Intergen, Purchase, N.Y.), as described previously (Grossman et al., 1999). Immunoprecipitation and Western blotting. Asynchronously growing or synchronized HeLa cells were lysed in 200 μl of lysis buffer containing 50 mM Tris, pH 7.5, 1% NP-40, 0.25% DOC, 150 mM NaCl, 1 mM PMSF, 10 μg/ml aprotinin, 10 μg/ml leupeptin, 10 μg/ml pepstatin, 1 mM Na3VO4, 20 mM NaF, 0.2 mM EGTA, 1 mM EDTA, pH 8.0, for 30 min at 4° C. Insoluble material was removed by centrifugation at 14,000 rpm for 15 min, and two-hundred μg of protein lysate was pre-absorbed with 25 μl of a 50:50 Protein A Sepharose slurry (Pharmacia) for 3 h at 4° C. with constant agitation. […]

COC(=O)C[C@H](NC(=O)[C@H](C)NC(=O)[C@@H](NC(=O)OCc1ccccc1)C(C)C)C(=O)CF [Z-VAD-fmk, reference compound] (Cbz-Val-Ala-Asp(OMe)-CH2F)
effect on sub-G1 DNA content induced by GFP-survivin(T34A) (HeLa cells [1]): reversed

Leu^64ÕAla: another survivin point mutant in the Baculovirus IAP repeat (BIR), control [reference compound]
ability to induce spontaneous apoptosis upon transient transfection (HeLa cells [2]; survivin BIR domain mutants): did not cause apoptosis

B1: caspase-9(C287A): caspase 9 dominant negative mutant (Cys287→Ala) (protein, UniProt P55211 1-416, looked up, variant C287A)
chain: MDEADRRLLRRCRLRLVEELQVDQLWDALLSRELFRPHMIEDIQRAGSGSRRDQARQLIIDLETRGSQALPLFISCLEDTGQDMLASFLRTNRQAAKLSKPTLENLTPVVLRPEIRKPEVLRPETPRPVDIGSGGFGDVGALESLRGNADLAYILSMEPCGHCLIINNVNFCRESGLRTRTGSNIDCEKLRRRFSSLHFMVEVKGDLTAKKMVLALLELAQQDHGALDCCVVVILSHGCQASHLQFPGAVYGTDGCPVSVEKIVNIFNGTSCPSLGGKPKLFFIQAAGGEQKDHGFEVASTSPEDESPGSNPEPDATPFQEGLRTFDQLDAISSLPTPSDIFVSYSTFPGFVSWRDPKSGSWYVETLDDIFEQWAHSEDLQSLLLRVANAVSVKGIYKQMPGCFNFLRKKLFFKTS
HeLa cell apoptosis induced by survivin(T34A), effect of co-transfected dominant negative caspase (HeLa cells [2]; 48 h): reversed HeLa cell apoptosis induced by survivin(T34A) to background levels | nuclear fragmentation and chromatin condensation induced by etoposide (HeLa cells [2]; etoposide 10 μg/ml, 48 h): inhibited

B2: caspase-8(C360S): caspase-8 dominant negative mutant obtained from Dr. V. Dixit (protein, UniProt Q14790 1-479, looked up, variant C360S)
chain: MDFSRNLYDIGEQLDSEDLASLKFLSLDYIPQRKQEPIKDALMLFQRLQEKRMLEESNLSFLKELLFRINRLDLLITYLNTRKEEMERELQTPGRAQISAYRVMLYQISEEVSRSELRSFKFLLQEEISKCKLDDDMNLLDIFIEMEKRVILGEGKLDILKRVCAQINKSLLKIINDYEEFSKERSSSLEGSPDEFSNGEELCGVMTISDSPREQDSESQTLDKVYQMKSKPRGYCLIINNHNFAKAREKVPKLHSIRDRNGTHLDAGALTTTFEELHFEIKPHDDCTVEQIYEILKIYQLMDHSNMDCFICCILSHGDKGIIYGTDGQEAPIYELTSQFTGLKCPSLAGKPKVFFIQASQGDNYQKGIPVETDSEEQPYLEMDLSSPQTRYIPDEADFLLGMATVNNCVSYRNPAEGTWYIQSLCQSLRERCPRGDDILTILTEVNYEVSNKDDKKNMGKQMPQPTFTLRKKLVFPSD
cell death induced by TNFα/cycloheximide (HeLa cells [2]; TNFα 10 ng/ml plus cycloheximide 10 μg/ml, 48 h): completely inhibited | HeLa cell apoptosis induced by survivin(T34A), effect of co-transfected dominant negative caspase (HeLa cells [2]; 48 h): did not reduce apoptosis

Reference: US7553821B2, “Methods for selectively modulating survivin apoptosis pathways” (Yale University, priority 2000, dated 2009)
